{"source": "patent US20110014656A1", "key": {"[1]": {"biological_target": "T1, human IL-17 receptor (IL-17RA) on transfected cells (human), Q96F46", "T1 sequence (Q96F46 33-320 limits assumed)": "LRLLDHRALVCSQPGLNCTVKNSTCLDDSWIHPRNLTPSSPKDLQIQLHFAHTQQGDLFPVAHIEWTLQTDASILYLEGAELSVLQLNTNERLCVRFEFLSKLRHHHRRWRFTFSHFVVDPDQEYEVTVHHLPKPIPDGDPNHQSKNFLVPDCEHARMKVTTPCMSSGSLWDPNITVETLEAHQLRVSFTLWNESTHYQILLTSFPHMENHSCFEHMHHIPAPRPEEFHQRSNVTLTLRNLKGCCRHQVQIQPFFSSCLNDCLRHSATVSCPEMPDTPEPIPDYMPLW", "assay": "saturation binding, iodinated cytokine on transfected BHK cells; saturation binding; fold comparison with the other Kd values of Table 1", "details": "remark: other sources report otherwise"}, "[2]": {"biological_target": "T1, human IL-17 receptor (IL-17RA) on …", "assay": "saturation binding, iodinated cytokine on transfected BHK cells; saturation binding, iodinated hIL-17F on hIL-17RA BHK cells", "details": "remark: other sources report otherwise"}}, "data": [{"binder": "human IL-17F, Q96PD4 31-163 (ligand) RKIPKVGHTFFQKPESCPPVPGGSMKLDIGIINENQRVSMSRNIESRSTSPWNYTVTWDPNRYPSEVVQAQCRNLGCINAQGKEDISMNSVPIQQETLVVRRKHQGCSVSFQLEKVLVTVGCTCVTPVIHHVQ", "values": [{"measurement": "fold lower affinity relative to the other affinities measured", "setting": "[1]", "result": 1000, "unit": "fold"}, {"measurement": "Kd", "setting": "[2]", "result": 1.5, "unit": "µM"}]}]}
